The values that follow come from article PMC2711183 (The EMBO journal, 2009).

Residue numbers refer to the chain shown, from its start. Where two headings read alike, the source gives them in different places.

A word on the Km: it is the concentration of substrate that gives half-maximal velocity. By kcat is commonly meant the number of substrate molecules converted per active site and unit of time at saturation. Usually kcat/Km stands for the turnover number divided by the Michaelis constant. In general, stoichiometry N refers to a count of units in the complex or per binding partner.

First the molecules themselves.
B1: MccB-His6 (enzyme, E. coli, UniProt Q47506 1-350, looked up)
chain: MDYILGRYVKIARYGSGGLVGGGGKEQYVENLVLWENIIKTAYCFITPSSYTAALETANIPEKDFSNCFRFLKENFFIIPGEYNNSTENNRYSRNFLHYQSYGANPVLVQDKLKNAKVVILGCGGIGNHVSVILATSGIGEIILIDNDQIENTNLTRQVLFSEDDVGKNKTEVIKRELLKRNSEISVSEIALNINDYTDLHKVPEADIWVVSADHPFNLINWVNKYCVRANQPYINAGYVNDIAVFGPLYVPGKTGCYECQKVVADLYGSEKENIDHKIKLINSRFKPATFAPVNNVAAALCAADVIKFIGKYSEPLSLNKRIGIWSDEIKIHSQNMGRSPVCSVCGNRM
B2: MccB (N-terminal His6-tag removed) (enzyme, E. coli, UniProt Q47506 1-350, looked up)
chain: B1 chain

In data set [1] the test system is Nc1ncnc2c1ncn2[C@@H]1O[C@H](COP(=O)(O)OP(=O)(O)OP(=O)(O)O)[C@@H](O)[C@H]1O. The data set is described as follows: purified protein. The format is biochemical, Escherichia coli. Conditions: 75 mM Tris-HCl pH 8.0, 5 mM MgCl2, 2.5 mM TCEP, co-substrate MccA.
The target in another data set is MccB ΔNTE (E. coli). The data set is described as follows: AUC.
A further data set has as its target T1, MccB K10A (E. coli) (UniProt Q47506).
T1 sequence: B1 chain with K10A

Data set [2] deals with B2. The data set is described as follows: crystal structure.
Data set [3] concerns the molecule itself. The data set is described as follows: crystal structure.
Data set [4] deals with the molecule itself. As to the kind of experiment: crystal structure. This is another data set of the same source.

On to MccB (Escherichia coli; R94A), for which, in data set [1], the Michaelis constant (Km) was 380 ± 130 µM, the kcat was 0.00125 ± 0.000917 s⁻¹ and the kcat/Km was 2.22 M⁻¹ s⁻¹.
On the same counts, the results for MccB (Escherichia coli; C123L) are 220 ± 80 µM, 0.000306 ± 8.33e-05 s⁻¹ and 2.22 M⁻¹ s⁻¹.
The matching figures for MccB (Escherichia coli; N241A): 400 ± 120 µM, 0.000472 ± 0.000139 s⁻¹ and 1.11 M⁻¹ s⁻¹.
Consider MccB ΔNTE (domain or fragment), for which, in the data set with MccB ΔNTE (E. coli), the stoichiometry N came out at 2.
Consider MccB (Escherichia coli; Y239A), for which, in data set [1], the Km was 380 ± 190 µM, the kcat was found to be 5.56e-06 ± 2.22e-06 s⁻¹ and the kcat/Km stood at 0.0139 M⁻¹ s⁻¹.
Consider MccB (Escherichia coli; K10A), for which, in data set [1], the Km came to 120 ± 20 µM, the kcat turned out to be 0.00103 ± 0.000139 s⁻¹ and the kcat/Km was found to be 8.33 M⁻¹ s⁻¹.
As to MRTGNAN [SeMet-MccA], in the data set with MccB K10A (E. coli), the Km for MccA in the MccB-catalysed reaction (HPLC of product formation) came out at 370 µM. Also, the binding result in data set [2] was “binds”.
As to B1, the binding result in the data set “crystal structure [3]” is on record as “binds”.
Regarding B2, the binding result in “crystal structure [4]” is recorded as “binds”.
